# Experimental data published in paper PMC10030653, “ClpC2 protects mycobacteria against a natural antibiotic targeting ClpC1-dependent protein degradation” (Communications Biology, 2023).
# T1: ClpC2 WT (Mycobacterium tuberculosis, UniProt P9WPC7 1-252)
# T1 sequence: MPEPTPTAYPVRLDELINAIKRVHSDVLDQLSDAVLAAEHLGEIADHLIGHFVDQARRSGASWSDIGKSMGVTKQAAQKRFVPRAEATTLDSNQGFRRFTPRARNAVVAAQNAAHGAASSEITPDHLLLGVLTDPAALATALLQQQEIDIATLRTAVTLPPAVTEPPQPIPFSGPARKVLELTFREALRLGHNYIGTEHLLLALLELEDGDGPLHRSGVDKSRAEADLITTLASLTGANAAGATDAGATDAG
# What was measured:
# [1] = biological target: cyclomarin A (Streptomyces sp. CNB-982); assay: ITC; 50 uM (monomer) ClpC1 NTD or ClpC2 titrated into 5 uM CymA at 37 C; 50 mM HEPES-KOH pH 7.5, 150 mM KCl, 9% DMSO, 1 mM EDTA; one-site binding model
# [2] = test system: DNA probe containing the clpC2 operator site; assay: EMSA, ClpC1 binding to DNA
# [3] = test system: ClpC1 NTD; settings: cited from earlier work
# [4] = biological target: ClpC1 (Mycobacterium tuberculosis, UniProt P9WPC9 1-848); assay: EMSA; 1-25 uM ClpC1, 0.5 nM DNA; EMSA: 5 mM HEPES-KOH pH 7.5, 30 mM KCl, 1% glycerol, 10 mM MgCl2, room temperature 20 min, 12% polyacrylamide gel; settings: protein: recombinant; tags: untagged; label: 5'-FAM; blunt
# [5] = biological target: T1, ClpC2 WT; assay: EMSA; 1-25 nM ClpC2, 0.5 nM DNA, no CymA; EMSA: 5 mM HEPES-KOH pH 7.5, 30 mM KCl, 1% glycerol, 10 mM MgCl2, room temperature 20 min, 12% polyacrylamide gel; settings: protein: recombinant; tags: untagged; chain copies: 2; label: 5'-FAM; blunt
# Chain of ClpC1 (P9WPC9 whole entry): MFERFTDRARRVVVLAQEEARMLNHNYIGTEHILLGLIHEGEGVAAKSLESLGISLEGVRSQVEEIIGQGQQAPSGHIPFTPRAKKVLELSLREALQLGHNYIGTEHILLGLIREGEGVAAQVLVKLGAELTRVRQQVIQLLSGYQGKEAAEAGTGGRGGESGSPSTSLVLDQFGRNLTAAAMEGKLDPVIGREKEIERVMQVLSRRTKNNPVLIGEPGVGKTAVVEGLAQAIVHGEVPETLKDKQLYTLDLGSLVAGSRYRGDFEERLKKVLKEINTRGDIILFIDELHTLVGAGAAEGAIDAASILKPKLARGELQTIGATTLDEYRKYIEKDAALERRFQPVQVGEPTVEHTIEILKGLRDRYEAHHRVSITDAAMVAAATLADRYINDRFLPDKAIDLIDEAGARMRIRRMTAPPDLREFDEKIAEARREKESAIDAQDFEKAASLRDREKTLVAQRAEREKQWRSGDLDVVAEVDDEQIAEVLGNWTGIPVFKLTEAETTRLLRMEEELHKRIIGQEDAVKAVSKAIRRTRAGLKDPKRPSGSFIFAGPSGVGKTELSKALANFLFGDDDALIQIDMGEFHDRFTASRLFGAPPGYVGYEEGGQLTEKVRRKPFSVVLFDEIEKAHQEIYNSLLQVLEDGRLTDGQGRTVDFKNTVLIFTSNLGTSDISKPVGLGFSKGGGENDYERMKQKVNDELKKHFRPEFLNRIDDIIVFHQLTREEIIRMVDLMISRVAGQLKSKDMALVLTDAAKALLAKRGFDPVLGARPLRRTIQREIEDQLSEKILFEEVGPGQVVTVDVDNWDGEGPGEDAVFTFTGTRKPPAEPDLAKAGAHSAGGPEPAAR
# Chain of ClpC1 N-terminal domain, residues 1-145 (ClpC1 NTD) (P9WPC9 1-145): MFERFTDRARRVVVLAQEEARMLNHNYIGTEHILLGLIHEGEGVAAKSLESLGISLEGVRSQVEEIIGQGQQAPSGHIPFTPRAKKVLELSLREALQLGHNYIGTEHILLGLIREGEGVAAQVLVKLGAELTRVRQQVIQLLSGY
molecule,measurement,setting,value
"ClpC1 N-terminal domain, residues 1-145 (ClpC1 NTD) (from UniProt P9WPC9 1-145) (domain or fragment)",Kd,[1],2.3 nM
"ClpC1: AAA+ chaperone ClpC1, purified Mtb protein",affinity of ClpC1 for DNA relative to ClpC2,[2]; EMSA,at least two orders of magnitude lower affinity than exhibited by ClpC2
same,sequence specificity of ClpC1 for clpC2 operator site,[2]; EMSA with unlabelled competitor DNA,little sequence specificity for the clpC2 operator site
same,"KD, ClpC1 to DNA","[2]; EMSA, 1-25 µM ClpC1, 0.5 nM DNA probe with clpC2 operator site",low micromolar range
"Mycobacterium tuberculosis ClpC2 (full length, wild type) (natural protein)",Kd,[1],2.2 nM
same,stoichiometry N,[1],1
ecumicin,target binding domain,[3],specifically target ClpC1 NTD
lassomycin,target binding domain,[3],specifically target ClpC1 NTD
clpC2_FAM_EMSA 41 bp operator probe (dsDNA) DNA 1: ACAATGCATAACGTCAACCTACTGTTGACGTCATGCCGGAG DNA 2: CTCCGGCATGACGTCAACAGTAGGTTGACGTTATGCATTGT,binding result,[4],binds
same,binding result,[5],binds
